The target of the assay is T1, GST-K-p52 (human, UniProt O75475 1-325, 32P-labeled by HMK where used as Farwestern probe).
T1 construct: The Nru I-EcoR V fragment of p52 cDNA was put in pGEX-2T(K); also called GST-p52; p52 probe; not shown: glutathione-S-transferase from the pGEX-2T(K) vector; heart muscle kinase (K) site and vector linker
Description: Farwestern blot with 32P-labeled GST-K-p52.

T1 sequence (O75475 other isoform, or with tags, fused parts or gaps): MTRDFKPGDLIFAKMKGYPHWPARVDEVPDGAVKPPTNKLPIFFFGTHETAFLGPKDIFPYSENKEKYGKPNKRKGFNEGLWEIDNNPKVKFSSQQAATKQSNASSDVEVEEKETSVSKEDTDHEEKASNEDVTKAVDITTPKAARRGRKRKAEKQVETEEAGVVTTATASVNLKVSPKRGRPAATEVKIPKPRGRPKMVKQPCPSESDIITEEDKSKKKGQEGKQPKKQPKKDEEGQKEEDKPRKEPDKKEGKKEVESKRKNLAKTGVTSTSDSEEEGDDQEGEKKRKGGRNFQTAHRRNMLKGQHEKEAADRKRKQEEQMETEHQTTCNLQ

B1: GST-RS (GST-fused RS domain of ASF/SF2) (other, UniProt Q07955 198-248, looked up)
chain: RSPSYGRSRSRSRSRSRSRSRSNSRSRSYSPRRSRGSPRYSPRHSRSRSRT
notes: domain: RS domain; not shown: glutathione-S-transferase
B1: the binding result is reported as “no binding”.

The values above are taken from US20050042631A1 (US Dept. of Health and Human Services, published 2005).
